Experimental findings from patent US11766444B2, “Pharmaceutical composition for preventing or treating degenerative brain disorders including HDL-APOM-S1P as active ingredient” (Kyungpook National University Industry-Academic Cooperation …, priority 2017, dated 2023) are described below.

Format in all cases: in vivo, mouse
One data set relates to astrocytes. Put plainly: Activity of astrocytes (GFAP staining), neuroinflammatory response. The note with it: APP/PS1 mice, brain tissue, vs untreated APP/PS1 mice. An excerpt:
(§1) Transgenic mice overexpressing hAPP695swe (APPswe) and presenilin-1M146V (PS1) mutations were used as mouse models of the Alzheimer's disease. These are mouse lines produced by GlaxoSmithKline (Harlow, UK) with the standard technology for C57BL background (Charles River, UK), which double heterozygote mutant mice (APP/PS1 tg mice) were produced by backcrossing APPswe mice with pure C57BL/6 backgrounds and crossing PS1 mice
(§2) After collecting blood from mice, the obtained blood was separated into erythrocytes and plasma by centrifugation. The separated erythrocytes are reacted with 10 uM sphingosine at 37° C. for 1 hour, and then reacted for 1 hour at 37° C. after mixing again with the separated plasma. […]
(§3) After fixing the cerebral (especially cortex) and hippocampus of mice with 4% paraformaldehyde, the immobilized tissues were incubated with 0.5% thioflavin S (Sigma-Aldrich) or anti-20G10 against Aβ42 (mouse, 1:1000), anti-G30 against Aβ40 (rabbit, 1:1000), anti-lba-1 (rabbit, 1:500, Wako), and anti-GFAP (rabbit, 1:500, DAKO), respectively. […] The sites were analyzed using a laser scanning confocal microscope or Olympus BX51 microscope equipped with Fluoview SV1000 imaging software (Olympus FV1000, Japan). Metamorph software (Molecular Devices) was used to quantify the percentage of area of stained area to area of total tissue. […]

The nature of data set [1]: S1P, ApoM, HDL-S1P and HDL-ApoM levels in plasma of APP/PS1 mice after HDL-ApoM-S1P loading. As to conditions: i.v. 25 μl twice a week for 4 weeks (8 times), vs untreated APP/PS1 mice.
Text: as §1
(§4) After collecting blood from mice, the obtained blood was separated into erythrocytes and plasma by centrifugation. The separated erythrocytes are reacted with 10 uM sphingosine at 37° C. for 1 hour, and then reacted for 1 hour at 37° C. after mixing again with the separated plasma. After completion of the reaction, erythrocytes and plasma were separated by centrifugation, and only the plasma was collected again. The plasma thus obtained was loaded with S1P in HDL (HDL-ApoM-S1P loading), which was illustrated in FIG. 1.
The plasma solution thus obtained was intravenously injected 25 μl into mice twice a week for 4 weeks (total 8 times) according to the experimental outline shown in FIG. 2. As a control group, 3 μM S1P (Avanti) and […] ApoM (Mybiosource, SEQ ID NO: 1) were injected intravenously with 25 μl in mice twice a week for 4 weeks (eight times in total).
To collect blood from mouse models (APP/PS1 tg mice or APP/PS1/ApoM tg mice) and normal control mice (WT), the mice were anesthetized first, and 500 μl to 700 μl of blood were collected in heparin tubes (BD Falcon) by cardiac drawing. Each blood sample was then centrifuged at 1,200 rpm for 5 minutes to separate plasma from the supernatant. This plasma sample was stored at −80° C. before being used for analysis.
60 μl of plasma sample was placed in the ultrafast centrifuge tube, and then the same amount of PBS (Gibco) solution was added to form a layer on the plasma. A high speed centrifuge (HITACHI cp100wx Centrifuge P70AT rotor) was used to centrifuge at 70,000 rpm for 3 hours at 4° C. 60 μl of the lower layer of the sample separated into two layers was transferred into a new ultra-centrifuge tube. […]
Extraction and quantification of S1P was performed in the following manner. […] The dried lipid extract was resuspended in 25 μl of 0.2% Igepal CA-630 (Sigma-Aldrich), and the concentration level of each lipid was quantified by the UPLC system using the column ACQUITY BEH Shield RP18 1.7 μm 2.1×50 mm (186002853) and 0.1% of NH4OH.
Using a commercial ELISA kit (CUSABIO Human ApoM ELISA Kit and Mouse ApoM ELISA Kit), the amount of apolipoprotein M (ApoM) contained in the mouse plasma or HDL fractionated therefrom was quantified according to the manufacturer's protocol. […]

For a further data set, the system named is amyloid-β. As to the kind of experiment: Amyloid-β deposition in brain tissue (cerebral cortex), thioflavin S staining and immunofluorescence. As to conditions: APP/PS1 mice, vs 9-month-old untreated APP/PS1 mice.
Text: as §1, §2, §3

A further data set deals with APP/PS1 mice. As to the kind of experiment: Morris water maze (MWM) test. As to conditions: 10 days training, probe trial day 11.
Text: as §1, §4
The plasma solution thus obtained was intravenously injected 25 μl into mice twice a week for 4 weeks (total 8 times) according to the experimental outline shown in FIG. 2. […]
In order to identify potential effects on learning and memory, Morris water maze (MWM) and fear conditioning experiments were performed according to known methods. […] All experiments were recorded using a charge-coupled device (CCD) camera with video monitor and computer. […]

Another data set deals with microglia. As to the kind of experiment: Activity of microglia (Iba1 staining), neuroinflammatory response. The note with it: APP/PS1 mice, brain tissue, vs untreated APP/PS1 mice.
Text: as §1, §2, §3

Another data set deals with tau. Put plainly: Tau deposition in brain tissue (AT8 immunofluorescence). As to conditions: APP/PS1 mice, cerebral cortex, vs 9-month-old untreated APP/PS1 mice.
Text: as §1, §2, §3

B1: ApoM: control, ApoM (Mybiosource, SEQ ID NO: 1) (protein)
chain: MFHQIWAALLYFYGIILNSIYQCPEHSQLTTLGVDGKEFPEVHLGQWYFIAGAAPTKEELATFDPVDNIVFNMAAGSAPMQLHLRATIRMKDGLCVPRKWIYHLTEGSTDLRTEGRPDMKTELFSSSCPGGIMLNETGQGYQRFLLYNRSPHPPEKCVEEFKSLTSCLDSKAFLLTPRNQEACELSNN
modifications: ApoM
As for B1, the “inflammatory activity of astrocytes” value in the data set on astrocytes is recorded as “no significant difference”. Besides, in data set [1], the “level of ApoM in plasma” value is recorded as “did not show a difference”, the “level of HDL-ApoM in the HDL fraction” value was “did not show a difference”, the “level of HDL-S1P in the HDL fraction” value is listed as “did not show a difference” and the “level of S1P in plasma” value is “did not show a difference”. For the same molecule, in the data set with amyloid-β, the “Aβ40 deposition in brain tissue” value is given as “did not show a significant difference” and the “Aβ42 deposition in brain tissue” value is listed as “did not show a significant difference”. The “learning and memory (spatial memory formation), MWM” value with APP/PS1 mice was “severe impairment”. For the same molecule, the “inflammatory activity of microglia” value with microglia was “no significant difference”. The “tau deposition (AT8) in brain tissue” value with tau was “did not show a significant difference”.
